{
  "source": "the DeepSol protein solubility set",
  "test": "soluble on expression in E. coli; label from the status in PepcDB or PDB records",
  "data": [
    {"sequence": "MNYSACTSILVGPQATMDGSVLIGRNEDAKAAWPKHFIVHPATTVATPPQFVSTDNGFTMPLPTQAAKYTATPEWTDKYGLFEEDGINEYGVAMSATESTYSNERVLGADPLVKDGLGEEAMVTVVLPYVKTAREGVARLGQLIEQYGTNESNGILFADQQEAWYLETGAGHYWVAQRIPANAYAVVANQMAIQAVDFADADNFMFAKNLQAFVTDNHLNPHPDRFIWREIFGTQDQSDLYYNTPRVWYGQKRFTPQVSQEPQSFDLPFIQYADRLLSVGDAQQYLSSHFEETPYDPVGSGTAEQKHRFRPVSLAKTQESHVLQLRPNMTPGLAGIQWLAMGVGAQSVYVPFYAGIDSTPEAYHLGTETYDSKSAYWTYKLVSVLLDAHYHTALPTVSETQKALRIAFKQAVQETDRGAQTLSGTELSRYLTQRSNEVAELGLKRYRELAATLITRATDLGPLNYHQDLNLLEHHHHHH", "values": [
      {"measurement": "soluble on expression in E. coli", "result": "not soluble"}
    ]},
    {"sequence": "MITLIFPGFNNVHVSGMDIEEKIRKIEEEIQKTPYNKATAHHIGKLKAKISRLKEEALQRKTSSGKGRGFHIKKSGDSTVVLIGFPSVGKSTLLNELTSAESKVGDYQFTTLEIVPGVMEYRGAQIQIFDIPGIITGASRGRGRGREILSVARSADLIVIVLDVFNTDHMDIILRELRDVGIRPNETPPDVIVKRRKLGGVKLSATVELTHLDEKIIRSVLNEYGIHNADVLIRDDITVDQFIDVMEANRAYIPAITVINKIDLVDESYLEGLREKFPEALFISADRDINIDELREEIFNRLGLIRIYLKPQGKKADYDEPLIIREGSTVGDVCQKLHRDFVRKFRHARVWGSSVKFDGQKVGLEHVLNDEDVLRIIIKK", "values": [
      {"measurement": "soluble on expression in E. coli", "result": "not soluble"}
    ]},
    {"sequence": "MSDNNDRMYELEYPSPEVSGQTAGGPTLIVALQGYADAGHAVESSSSHLMDALDHRLIASFNNDELIDYRSRRPVVVIEHNEVTSMDELNLGLHVVRDNDNKPFLMLSGPEPDLRWGDFSNAVVDLVEKFGVENTICLYAAPMTVPHTRPTVVTAHGNSTDRLKDQVSLDTRMTVPGSASLMLEKLLKDKGKNVSGYTVHVPHYVSASPYPAATLKLLQSIADSADLNLPLLALERDAEKVHRQLMEQTEESSEIQRVVGALEQQYDSELERYRNRHPQAVMPGESELPSGDEIGAEFEKFLADLDDQGGSDHKETPEA", "values": [
      {"measurement": "soluble on expression in E. coli", "result": "soluble"}
    ]},
    {"sequence": "MSSDSDSDFGKEASKTPKRRITDCLFDSDDEVLESPGREELRKLLLSDYEDVGSVTIDTPKLKNRNVRLRGAGRPQKGGDDYKDYGRSEMEQFLRLVSDKPFLWHTKDSDFHRKKEKGMPAWAEIERTCNTFMGKGRTPGKTAAALFKKMATTYKSHLTRIQKAPSGSAVTPKKDLFCYAELMSFMDEDITHRAPTCSFIVGAGPDVDVLPTETSSSKKK", "values": [
      {"measurement": "soluble on expression in E. coli", "result": "not soluble"}
    ]},
    {"sequence": "TSSLSYWQGEAFRRGFDSRGRFDDVLKILLLLDAAQKEGKALPVQEFRRHINMGYDELGELLEKLARHGYIYSGRQGWVLKTGADSIELNELFKLFVYRPLPVERDHVNQAVDAVMTPCLQTLNMTLAEFDAQAKKRQ", "values": [
      {"measurement": "soluble on expression in E. coli", "result": "not soluble"}
    ]},
    {"sequence": "MGHHHHHHENLYFQSHLYFQSHMDVAPLNLGMIAAYYYINYTTIELFSMSLNAKTKVRGLIEIISNAAEYENIPIRHHEDNLLRQLAQKVPHKLNNPKFNDPHVKTNLLLQAHLSRMQLSAELQSDTEEILSKAIRLIQACVDVLSSNGWLSPALAAMELAQMVTQAMWSKDSYLKQLPHFTSEHIKRCTDKGVESVFDIMEMEDEERNALLQLTDSQIADVARFCNRYPNIELSYEVVDKDSIRSGGPVVVLVQLEREEEVTGPVIAPLFPQKREEGWWVVIGDAKSNSLISIKRLTLQQKAKVKLDFVAPATGAHNYTLYFMSDAYMGCDQEYKFSVDVKEAETDSDSD", "values": [
      {"measurement": "soluble on expression in E. coli", "result": "soluble"}
    ]},
    {"sequence": "MGSDKIHHHHHHMFVGASEFRLTDAEHGLSFPVLVMYPTRQLPSRHAFGPYLMDVSMNAPIAGGQHPLILVSHGSGGSHLLYRTMTAHLAQHGYVVAMIEHPGNNRVDNQFMGKVENLQYRPRHLRLTADALYGDAVLGPHLQAGRIGVIGHSMGGYTALALAGGTPWYPPEAFQPDYRGPAPAVVDVEHDDRVKALVLLAPATVWFMPEHALEDVDVPILMLSAEHDPYTPAWHGEIVRKGVRDPANVTSRCVKNAGHFSFLSPFPPKIKQGGALPTIDPEGFDRERFHEQLKQEILAYFNLRLKTAPA", "values": [
      {"measurement": "soluble on expression in E. coli", "result": "not soluble"}
    ]},
    {"sequence": "MSDQMRIPCVIMRAGTSKGIFLKGNDLPADQELRDKVILRIFGSPDVRQIDGLAGADPLTSKLAIIGPSTHPDADVDYTFAQVSITDAVVDYNGNCGNISAGVGPFAIDESFVKAVEPMTRVCIHNTNTGKLLYAEVEVEDGKAKVSGDCKIDGVPGTNAPELMDFSDTAGAATGKVLPTGNVVDVLSTSKGDIDVSIVDVANPCIFVHAKDVNMTGTETPDVINGNADLLAYLEEIRAKCCVKIGMAATEKEASEKSPAFPMIAFVTKPEDYVDFSTGNTISGDDVDLVSRLMFMQVLHKTYAGTATACTGSAARIPGTIVNQVLRDTGDEDTVRIGHPAGVIPVVSIVKDGKVEKAALIRTARRIMEGYVYVEKAKLVGSAWSHPQFEK", "values": [
      {"measurement": "soluble on expression in E. coli", "result": "soluble"}
    ]},
    {"sequence": "MCMVHTYLGETINFHITYKKKKSVRLFVDSYGNVEVQAPKGTPVEYLIQLLEEKWDWIQTTRKEMAERARGPQEKDYDQGEGFLYLGNTYPIQISQDANITQDNAVFEKDRLHIYVKELKDEKIQQALKRFYYKQKSLVEKSIKAHQSNFKTKPRSIRITDSSRTWGTCDSNLQLTFNWKLAMAPQRVIDYVVVHEMCHMVHLNHDRSFWRLVGKIMPDYKEMENWLALSSWKMTVMAGDPLEHHHHHH", "values": [
      {"measurement": "soluble on expression in E. coli", "result": "soluble"}
    ]},
    {"sequence": "MGSDKIHHHHHHMRQGAGLGYRRDLAEGFLQLRNNDRIQFMEIAPENWIKMGGFARYQFDKVAEKIPILIHGLSLSLGGQAPLDKELLSSIKAMIKQYNTPFFSDHLSFCECDGHLYDLLPMPFTDEAVKHTAARIREVQDFLEIQISVENTSYYLHSETSTMNEVEFLNAIVQEANCGIHLDVNNIYVNAVNHGLLDPHVFIDNVDLKRVNYIHIAGHDDEHAATEVQIQTSESFNKIKGDLRHLPPLLVDTHGENVKGTVWDLLEYTYARLSHMPPTLLERDFNFPPFEKLCKEVDIIHQLQQKYVKKRGLSWLKI", "values": [
      {"measurement": "soluble on expression in E. coli", "result": "not soluble"}
    ]},
    {"sequence": "MRDNASLAHTQWNCKYHIVFAPKYRRQVIYGKIKKDIGQILRKLCEMKGVEIIEASLCPDHIHMLVSIPPKISVSSFMGYLKGKSSLMIFNRHANLKYKYGNRHFWCRGYYVDTVGRNRKAIEQYIRRQLQEDIASDQISLNEYIDPFTGERVNKSKK", "values": [
      {"measurement": "soluble on expression in E. coli", "result": "not soluble"}
    ]},
    {"sequence": "SGIGTGHTSMNKGGKDVTLLELSVEKRRWRINMETSKIILEKMQSDDVLDGNRERSNEREGRDSLSEKLKSKQNLKDEEKLRYIKTGKSIQVEGTVRAKALRWVQ", "values": [
      {"measurement": "soluble on expression in E. coli", "result": "soluble"}
    ]},
    {"sequence": "MNDGKISILVLGADKAQGGQSRTDSIMVVQYDFINKKMKMMSVMRDIYADIPGYGKHKINSAYALGGPKLLRKTLDKNLGINPEYYAVVDFTGFEKMIDELMPEGVPINVEKDMSKNIGVSLKKGNHRLNGKELLGYARFRHDPEGDFGRVRRQQQVMQTLKKEMVNFRTVVKLPKVAGILRGYVNTNIPDSGIFQTGLSFGIRGEKDVKSLTVPIKNSYEDVNTNTDGSALQINKNTNKQAIKDFLDEDLEHHHHHH", "values": [
      {"measurement": "soluble on expression in E. coli", "result": "soluble"}
    ]},
    {"sequence": "KGATFKEAEEHYHINALYLLAHSALESNWGRSKIAKDKNNFFGITAYDTTPYLSAKTFDDVDKGILGATKWIKENYIDRGRTFLGNKASGMNVEYASDPYWGEKIASVMMKINEKLGGKD", "values": [
      {"measurement": "soluble on expression in E. coli", "result": "not soluble"}
    ]},
    {"sequence": "MGSLVREWVGFQQFPAATQEKLIEFFGKLKQKYLIVKMIQGAIRNDIKTSGKPL", "values": [
      {"measurement": "soluble on expression in E. coli", "result": "not soluble"}
    ]},
    {"sequence": "MKLSVVMPVYNEKATLRAIYEQVAAVTIDKEIILVDDCSTDGTREIVRELGATGATVVLHDRNMGKGAALRSGFRHVTGDVVLIQDADLEYDPGQYPLLIQPILNGEVDVVYGSRFLSGERSLGMSFWNRAGNRILTYLSNTLTKLELTDVETCYKVFSRDVLERITIEENRFGCEPEITAKLAKLGVRIREVGISYRGRTSAEGKKIGWRDFISSVRCIAKYTLT", "values": [
      {"measurement": "soluble on expression in E. coli", "result": "soluble"}
    ]}
  ]
}
